Measurements from article PMC11696079.

Key:
[1] = target: circPETH-147aa, recombinant wild type (human); experiment: SPR
[2] = target: circPETH-147aa MEG/3 A, recombinant (human); experiment: SPR

B1: recombinant wild-type ALDOA (WT) (enzyme)
chain: PYQYPALTPEQKKELSDIAHRIVAPGKGILAADESTGSIAKRLQSIGTENTEENRRFYRQLLLTADDRVNPCIGGVILFHETLYQKADDGRPFPQVIKSKGGVVGIKVDKGVVPLAGTNGETTTQGLDGLSERCAQYKKDGADFAKWRCVLKIGEHTPSALAIMENANVLARYASICQQNGIVPIVEPEILPDGDHDLKRCQYVTEKVLAAVYKALSDHHIYLEGTLLKPNMVTPGHACTQKFSHEEIAMATVTALRRTVPPAVTGITFLSGGQSEEEASINLNAINKCPLLKPWALTFSYGRALQASALKAWGGKKENLKAAQEEYVKRALANSLACQGKYTPSGQAGAAASESLFVSNHAY
Kd [1]: 42.4 nM | Kd [2]: 1410 nM
